The record followed here is US20240415975A1 (ABTIS, published 2024).

Test [1] deals with Claudin 18.2 protein (CLDN18.2), expressed on cells (UniProt P56856). The experiment in a line: cell-based ELISA (OD 450 nm) on MIA PaCa-2-CLDN18.2 cells; regression in GraphPad Prism.
The target of test [2] is CLDN18.2 virus-like particle (VLP) in which the claudin 18.2 protein (CLDN18.2) was expressed (UniProt P56856). The experiment in a line: indirect ELISA (OD 450 nm) on plate coated with CLDN18.2 VLP; regression in GraphPad Prism. On the technique in general: In an ELISA, binding on a coated surface is turned into a signal by an enzyme label.
Test [3] addresses Claudin 18.2 protein (CLDN18.2), expressed on cells (UniProt P56856). In words: cell-based ELISA (OD 450 nm) on PATU8988S cells (CLDN18.2+); regression in GraphPad Prism.
For test [4] the target is unchanged. The experiment in a line: cell-based ELISA (OD 450 nm) on SNU601 cells (CLDN18.2+); regression in GraphPad Prism.
Test [5] concerns the target T1, Claudin 18.2 protein (CLDN18.2), expressed on cells (UniProt P56856-2 1-261). The experiment in a line: cell-based or functional assay.
Test [6] deals with T2, Claudin 18.1 protein (CLDN18.1), expressed on CHO-K1 cells (UniProt P56856 1-261, limits assumed).
T2 construct: whole, on cells; also called CLDN18.1~CHO-K1
In words: cell-based ELISA on CHO-K1 cells transiently transfected with CLDN18.1.
Description: (§1) The measured results were used for regression analysis in GraphPad PRISM® 9.0 software to calculate EC50 and Bmax.

Test [7] concerns the target T3, CLDN18.2 virus-like particle (VLP) in which the claudin 18.2 protein (CLDN18.2) was expressed (UniProt P56856 1-261).
T3 construct: Bought reagent; also called CLDN18.2 VLP; CLDN18.2~VLP
The experiment in a line: indirect ELISA on plate coated with CLDN18.2 VLP; regression in GraphPad Prism (row labelled Kd, text says EC50).

Test [8] has as its target T1, Claudin 18.2 protein (CLDN18.2), …. In words: cell-based ELISA on CHO-K1 cells transiently transfected with CLDN18.2; regression in GraphPad Prism (row labelled Kd, text says EC50).
Description: as §1

Where “and” joins values, the source holds several entries; their conditions need not be identical. Equal entries are not always repeated.

Turning to Zolbetuximab (antibody-B), the Bmax is 3.05 in test [1], 2.13 in test [2], 1.21 in test [3] and 1.7 in test [4].

B1: ADC-A (MMAE conjugated with antibody-A) (antibody, human IgG1, kappa, V domains shown)
VH: QVQLVESGGGVVQPGRSLRLSCAASGFSLTTYGVHWVRQAPGKGLEWVAVIWAGGSTNYNSALMSRFTISRDNSKNTLYLQMNSLRAEDTAVYYCARAAYYGNGLDYWGQGTMVTVSS
VL: DIVMTQSPLSLPVTPGEPASISCKSSQTLLNSGNQKNYLTWYLQKPGQSPQLLIYWASTGESGVPDRFSGSGSGTDFTLKISRVEAEDVGVYYCQNAYFYPFTFGGGTKVEIKR
modifications: payload (PEG8)2-BG-MMAE linked through a linker to lysine residue 246 or 248 (EU numbering) of each heavy chain (DAR 2)
notes: which of K246 or K248 carries the payload is not resolved
B1: in test [5], the “IC50 (nM), cell viability (CellTiter-Glo), MIA PaCa-2 (CLDN18.2+)” value is 0.101 nM; the “IC50 (nM), cell viability (CellTiter-Glo), NUGC4 (CLDN18.2+)” value amounted to 1.59 nM; the “IC50 (nM), cell viability (CellTiter-Glo), PATU8988S (CLDN18.2+)” value is 0.279 nM; the “IC50 (nM), cell viability (CellTiter-Glo), SNU601 (CLDN18.2+)” value was 0.095 nM. The binding result in test [6] is recorded as “no binding”. The Kd (as a rule, a measure of binding affinity in units of concentration) in test [7] was 0.0527 µg/mL and 0.351 nM. In addition, in test [8], the Kd was 0.123 µg/mL and 0.82 nM.

B2: anti-Claudin 18.2 antibody (Anti-CLDN18.2 mAb) (antibody-A) (antibody, human IgG1, kappa, V domains shown)
VH: QVQLVESGGGVVQPGRSLRLSCAASGFSLTTYGVHWVRQAPGKGLEWVAVIWAGGSTNYNSALMSRFTISRDNSKNTLYLQMNSLRAEDTAVYYCARAAYYGNGLDYWGQGTMVTVSS
VL: DIVMTQSPLSLPVTPGEPASISCKSSQTLLNSGNQKNYLTWYLQKPGQSPQLLIYWASTGESGVPDRFSGSGSGTDFTLKISRVEAEDVGVYYCQNAYFYPFTFGGGTKVEIKR
notes: two heavy and two light chains; Elsewhere called an IgG1 type anti-CLDN18.2 antibody; Obtained from GenScript ProBio
As to B2, the binding result in test [6] is listed as “no binding”. In addition, the Kd in test [7] is 0.0319 µg/mL and 0.212 nM; in test [8] it was 0.0636 µg/mL and 0.424 nM.
